Consider one molecule from patent US20100021935A1 (FIBROSTATIN SOCIEDAD LIMITADA, published 2010).

The assay has as its target T1, recombinant 77-kDa GPBP expressed from pc-n4′ (human, UniProt Q9Y5P4 1-624).
T1 construct: untagged, transient expression in HEK 293 cells; also called 77-kDa GPBP isoform
T1 sequence: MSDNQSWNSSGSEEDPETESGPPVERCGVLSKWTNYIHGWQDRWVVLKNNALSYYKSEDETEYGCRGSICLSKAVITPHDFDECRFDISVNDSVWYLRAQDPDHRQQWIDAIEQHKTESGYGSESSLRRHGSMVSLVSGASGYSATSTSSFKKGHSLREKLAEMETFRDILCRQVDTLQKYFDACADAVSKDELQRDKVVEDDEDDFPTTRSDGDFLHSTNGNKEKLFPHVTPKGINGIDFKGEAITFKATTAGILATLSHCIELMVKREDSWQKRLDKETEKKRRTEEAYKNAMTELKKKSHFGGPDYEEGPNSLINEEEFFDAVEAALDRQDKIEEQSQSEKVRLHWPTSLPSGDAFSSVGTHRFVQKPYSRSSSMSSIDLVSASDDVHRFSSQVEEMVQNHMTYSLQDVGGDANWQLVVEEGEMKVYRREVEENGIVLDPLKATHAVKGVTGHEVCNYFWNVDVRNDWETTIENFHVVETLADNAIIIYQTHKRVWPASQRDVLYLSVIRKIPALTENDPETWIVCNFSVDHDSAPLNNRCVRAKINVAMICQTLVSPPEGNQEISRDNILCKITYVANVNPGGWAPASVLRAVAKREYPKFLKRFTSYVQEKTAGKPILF
Kind of assay: ex vivo cross-linking and FLAG immunoprecipitation. As to the method: Cells were grown up to 70-90% of confluence in either 150-mm plates (native GPBP) or six-well plates (recombinant GPBP). Cross-linking was performed 48 h after transfection or when cells reached the indicated confluence. Briefly, cells were brought to RT by rinsing with PBS and incubated for 10 min with culture medium containing 1% formaldehyde. The cross-link reaction was quenched with 125 mM Gly-HCl in PBS (pH 7.4) for 10 min at RT. Cells were brought to 4° C. by rinsing with ice-chilled PBS and procedure continued at 4° C. Cells were lysed with 1 or 5 ml (six-well or 150-mm plate) of extraction buffer [16 mM Tris-HCl pH 7.5, 160 mM NaCl, 2 mM ethylenediaminetetraacetic acid (EDTA), 1. […] Eluted samples were boiled with electrophoresis sample buffer (2×) for 15 min to reverse cross-linking and further analyzed by SDS-PAGE and either Coomassie blue staining or Western blot.
This was further assessed by ex vivo cross-linking and FLAG-immunoprecipitation of cells expressing or not expressing BM40-FLAG-α3(IV)NC1, a recombinant exportable form of the human α3(IV)NC1 (16), followed by SDS-PAGE analysis of immunoprecipitates (FIG. 4A). […] To further determine that GPBP indeed interacted with FLAG-α3(IV) in the ER, cells expressing or not expressing BM40-FLAG-α3(IV)NC1 were transfected with pc-n4′ and similarly analyzed (FIG. 4B).

B1: FLAG-α3(IV)NC1, recombinant exportable human α3(IV)NC1 domain (BM40-FLAG-α3(IV)NC1) (other, not shown: small tags and cut ends)
chain: GLKGKRGDSGSPATWTTRGFVFTRHSQTTAIPSCPEGTVPLYSGFSFLFVQGNQRAHGQDLGTLGSCLQRFTTMPFLFCNVNDVCNFASRNDYSYWLSTPALMPMNMAPITGRALEPYISRCTVCEGPAIAIAVHSQTTDIPPCPHGWISLWKGFSFIMFTSAGSEGTGQALASPGSCLEEFRASPFLECHGRGTCNYYSNSYSFWLASLNPERMFRKPIPSTVKAGELEKIISRCQVCMKKRH
notes: expressed in HEK 293-FLAG-α3(IV) cells; also called type IV collagen
Turning to B1, the binding result is reported as “binds”.
